From patent publication US20240052064A1 (Bristol-Myers Squibb, published 2024)

B1: Mab101 (bispecific antibody, human IgG1, L234A L235A)
heavy 1: not shown
heavy 2: not shown
light 1: not shown
light 2: EVQLLESGGGLVQPGGSLRLSCAASGFTFSTYAMNWVRQAPGKGLEWVSRIRSKYNNYATYYADSVKGRFTISRDDSKNTLYLQMNSLRAEDTAVYYCVRHGNFGNSYVSWFAYWGQGTLVTVSSASVAAPSVFIFPPSDEQLKSGTASVVCLLNNFYPREAKVQWKVDNALQSGNSQESVTEQDSKDSTYSLSSTLTLSKADYEKHKVYACEVTHQGLSSPVTKSFNRGEC
notes: also called BCMA TCE; BCMA T cell engager
B2: Mab102 (bispecific antibody, human IgG1, L234A L235A)
heavy 1: EVQLLESGGGLVQPGGSLRLSCAASGFTFSDNAMGWVRQAPGKGLEWVSAISGPGSSTYYADSVKGRFTISRDNSKNTLYLQMNSLRAEDTAVYYCAKVLGWFDYWGQGTLVTVSSASTKGPSVFPLAPSSKSTSGGTAWLGCEVTDYFPEPVTVSWNSGALTSGVHTFPAVLESSGLYSLSSVVTVPSSSLGTQTYICNVNHKPSNTKVDKKVEPKSCDKTHTCPPCPAPEAAGGPSVFLFPPKPKDTLMISRTPEVTCVVVDVSHEDPEVKFNWYVDGVEVHNAKTKPREEQYNSTYRVVSVLTVLHQDWLNGKEYKCKVSNKALGAPIEKTISKAKGQPREPQVYVYPPSREEMTKNQVSLTCLVKGFYPSDIAVEWESNGQPENNYKTTPPVLDSDGSFALVSKLTVDKSRWQQGNVFSCSVMHEALHNHYTQKSLSLSPG
heavy 2: EVQLLESGGGLVQPGGSLRLSCAASGFTFSDNAMGWVRQAPGKGLEWVSAISGPGSSTYYADSVKGRFTISRDNSKNTLYLQMNSLRAEDTAVYYCAKVLGWFDYWGQGTLVTVSSASTKGPSVFPLAPSSKSTSGGTAWLGCEVTDYFPEPVTVSWNSGALTSGVHTFPAVLESSGLYSLSSVVTVPSSSLGTQTYICNVNHKPSNTKVDKKVEPKSCDGGGGSGGGGSQAVVTQEPSLTVSPGGTVTLTCGSSTGAVTTSNYANWVQEKPGQAFRGLIGGTNKRAPGTPARFSGSLLGGKAALTLSGAQPEDEAEYYCALWYSNLWVFGGGTKLTVLSSASTKGPSVFPLAPSSKSTSGGTAALGCLVKDYFPEPVTVSWNSGALTSGVHTFPAVLQSSGLYSLSSVVTVPSSSLGTQTYICNVNHKPSNTKVDKKVEPKSCDKTHTCPPCPAPEAAGGPSVFLFPPKPKDTLMISRTPEVTCVVVDVSHEDPEVKFNWYVDGVEVHNAKTKPREEQYNSTYRVVSVLTVLHQDWLNGKEYKCKVSNKALGAPIEKTISKAKGQPREPQVYVLPPSREEMTKNQVSLLCLVKGFYPSDIAVEWESNGQPENNYLTWPPVLDSDGSFFLYSKLTVDKSRWQQGNVFSCSVMHEALHNHYTQKSLSLSPG
light 1: EIVLTQSPGTLSLSPGERATLSCRASQSVSSYYLAWYQQKPGQAPRLLISGAGSRATGIPDRFSGSGSGTDFTLTISRLEPEDFAVYYCQQYGYPPDFTFGQGTKVEIKRTVAAPSVAIFPPSDERLKSGTASVVCVLNNFYPREAKVQWKVDNALQSGNSQESVTEQDSKDSTYSLSSRLTLSKADYEKHKVYACEVTHQGLSSPVTKSFNRGEC
light 2: EVQLLESGGGLVQPGGSLRLSCAASGFTFSTYAMNWVRQAPGKGLEWVSRIRSKYNNYATYYADSVKGRFTISRDDSKNTLYLQMNSLRAEDTAVYYCVRHGNFGNSYVSWFAYWGQGTLVTVSSASVAAPSVFIFPPSDEQLKSGTASVVCLLNNFYPREAKVQWKVDNALQSGNSQESVTEQDSKDSTYSLSSTLTLSKADYEKHKVYACEVTHQGLSSPVTKSFNRGEC
notes: as for B1
B3: CC-93269 (bispecific antibody, human IgG1, kappa, L234A L235A)
heavy 1: not shown
heavy 2: EVQLLESGGGLVQPGGSLRLSCAASGFTFSDNAMGWVRQAPGKGLEWVSAISGPGSSTYYADSVKGRFTISRDNSKNTLYLQMNSLRAEDTAVYYCAKVLGWFDYWGQGTLVTVSSASTKGPSVFPLAPSSKSTSGGTAALGCLVEDYFPEPVTVSWNSGALTSGVHTFPAVLQSSGLYSLSSVVTVPSSSLGTQTYICNVNHKPSNTKVDEKVEPKSCDKTHTCPPCPAPEAAGGPSVFLFPPKPKDTLMISRTPEVTCVVVDVSHEDPEVKFNWYVDGVEVHNAKTKPREEQYNSTYRVVSVLTVLHQDWLNGKEYKCKVSNKALGAPIEKTISKAKGQPREPQVCTLPPSRDELTKNQVSLSCAVKGFYPSDIAVEWESNGQPENNYKTTPPVLDSDGSFFLVSKLTVDKSRWQQGNVFSCSVMHEALHNHYTQKSLSLSPGK
light 1: EIVLTQSPGTLSLSPGERATLSCRASQSVSDEYLSWYQQKPGQAPRLLIHSASTRATGIPDRFSGSGSGTDFTLAISRLEPEDFAVYYCQQYGYPPDFTFGQGTKVEIKRTVAAPSVFIFPPSDRKLKSGTASVVCLLNNFYPREAKVQWKVDNALQSGNSQESVTEQDSKDSTYSLSSTLTLSKADYEKHKVYACEVTHQGLSSPVTKSFNRGEC
light 2: EVQLLESGGGLVQPGGSLRLSCAASGFTFSTYAMNWVRQAPGKGLEWVSRIRSKYNNYATYYADSVKGRFTISRDDSKNTLYLQMNSLRAEDTAVYYCVRHGNFGNSYVSWFAYWGQGTLVTVSSASVAAPSVFIFPPSDEQLKSGTASVVCLLNNFYPREAKVQWKVDNALQSGNSQESVTEQDSKDSTYSLSSTLTLSKADYEKHKVYACEVTHQGLSSPVTKSFNRGEC
notes: also called 42-TCBcv; BCMA TCE

What was measured:
BCMA = biological target: T1, BCMA (human, UniProt Q02223 1-54, limits assumed)
T1 construct: also called B cell maturation antigen; TNFRSF17
T1 sequence (looked up): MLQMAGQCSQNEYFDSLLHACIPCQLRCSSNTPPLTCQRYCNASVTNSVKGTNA

[1] = biological target: T2, BCMA on cells (JEKO cells, plasmablasts) (human, UniProt Q02223 1-184); assay: cell-based or functional assay
T2 sequence (looked up): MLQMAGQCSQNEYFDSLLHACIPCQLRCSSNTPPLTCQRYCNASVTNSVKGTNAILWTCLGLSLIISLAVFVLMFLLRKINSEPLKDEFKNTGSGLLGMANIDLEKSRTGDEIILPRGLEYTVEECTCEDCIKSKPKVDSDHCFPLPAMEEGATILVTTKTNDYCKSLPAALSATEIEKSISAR

Human BCMA, TPP208 [2] = biological target: T3, Human BCMA, TPP208 (human, UniProt Q02223 1-54, limits assumed); assay: SPR (Biacore T200), single-cycle kinetics, antibody captured on anti-human IgG, antigen injected; sensorgram of sample stored at pH 4, 40 C compared with the non-stressed standard
T3 construct: also called Antigen 1
T3 sequence (looked up): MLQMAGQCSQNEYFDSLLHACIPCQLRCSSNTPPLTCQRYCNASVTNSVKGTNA
Method: (§1) SPR experiments were performed using a Biacore T200 system (GE Healthcare, Uppsala, Sweden) with analysis and sample compartment temperatures set at 25° C. and 7° C. respectively.
(§2) Anti-Human IgG (from anti-human IgG Capture Kit) was amine coupled to the surface of a CM5 chip according to the manufacturer's instructions. Molecule bispecific antibodies diluted to 1 μg/mL in running buffer were captured on the chip surface in a 60 s injection. Following the single-cycle kinetics procedure, antigen was next injected five times (30 s per injection) at incrementally increasing concentrations at a flow rate of 30 μL/min. Antigen concentrations ranged from 0.08 to 50 nM for BCMA and between 12.7 to 1000 nM for CD3. A 300 s dissociation time was added after the last antigen injection. Following each experiment, all flow cells were regenerated using a 30 s injection of 3M MgCl₂.
(§3) Prior to analysis, data were double referenced by first subtracting data from a reference flow cell and then subtracting a blank cycle where buffer was injected instead of antigen. The sensorgram comparison analysis was implemented using a Biacore T200 (software version 3.0). All data were normalized with respect to the response where 100% reflects the maximum binding obtained during injection and 0% reflects the baseline. Average and ±3 standard deviation (SD) sensorgrams were calculated from ten or more independent sensorgrams of each molecule's non-stressed material (standard). For quantitation of binding similarities of the stressed samples against the corresponding non-stressed standard, sample sensorgrams were co-evaluated with the sensorgrams of the standard. The degree of similarity was calculated based on how many sample data points fell inside or outside the ±3 standard deviation limits according to Equation 2, where SSQ is the sum of squares (Karlsson, R, Pol, E., and Frostell, A. (2016); Analytical Biochemistry 502, 53-63).

Human CD3ED, TPP401 [3] = biological target: T4, Human CD3ED, TPP401 (human, UniProt P07766 23-126; P04234 22-105); assay: as above
T4 construct: 'CD3ED' is read here as the CD3 epsilon/delta pair; also called Antigen 2
T4 sequence (P07766 23-126, chain 1 of 2): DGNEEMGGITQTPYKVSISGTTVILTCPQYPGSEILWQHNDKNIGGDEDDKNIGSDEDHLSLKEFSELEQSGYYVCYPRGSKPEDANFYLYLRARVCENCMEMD
T4 sequence (P04234 22-105, chain 2 of 2): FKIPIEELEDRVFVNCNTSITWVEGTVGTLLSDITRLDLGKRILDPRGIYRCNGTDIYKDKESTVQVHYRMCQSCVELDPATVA
Method: as §1, §2, §3

Human BCMA, TPP208 [4] = biological target: T3, Human BCMA, TPP208; assay: SPR (Biacore T200), single-cycle kinetics, antibody captured on anti-human IgG, antigen injected; sensorgram of sample stored at pH 6, 40 C compared with the non-stressed standard
Method: as §1, §2, §3

Human CD3ED, TPP401 [5] = biological target: T4, Human CD3ED, TPP401; assay: as above
Method: as §1, §2, §3

Human BCMA, TPP208 [6] = biological target: T3, Human BCMA, TPP208; assay: SPR (Biacore T200), single-cycle kinetics, antibody captured on anti-human IgG, antigen injected; sensorgram of sample stored at pH 8, 40 C compared with the non-stressed standard
Method: as §1, §2, §3

Human CD3ED, TPP401 [7] = biological target: T4, Human CD3ED, TPP401; assay: as above
Method: as §1, §2, §3

[8] = biological target: T2, BCMA on cells (JEKO cells, plasmablasts); assay: cell-based or functional assay; remark: listed apart in the source
[9] = biological target: T2, BCMA on cells (JEKO cells, plasmablasts); assay: cell-based or functional assay; remark: listed apart in the source
Human BCMA, TPP208 [10] = biological target: T3, Human BCMA, TPP208; assay: SPR (Biacore T200), single-cycle kinetics, antibody captured on anti-human IgG, antigen injected; sensorgram of sample stored at pH 6 with tert-butyl peroxide, 40 C compared with the non-stressed standard
Method: as §1, §2, §3

Human CD3ED, TPP401 [11] = biological target: T4, Human CD3ED, TPP401; assay: as above
Method: as §1, §2, §3

[12] = biological target: T2, BCMA on cells (JEKO cells, plasmablasts); assay: cell-based or functional assay; remark: listed apart in the source
[13] = biological target: T2, BCMA on cells (JEKO cells, plasmablasts); assay: cell-based or functional assay; remark: listed apart in the source

Binder	Kd (BCMA) [nM]	EC50 for JEKO cell killing (nM), T cell-mediated, annexin V, 20 h, T:E 1:2 [1] [nM]	pH 4 SPR % similarity-BCMA (Human BCMA, TPP208 [2]) [%]	pH 4 SPR % similarity-CD3 (Human CD3ED, TPP401 [3]) [%]	pH 6 SPR % similarity-BCMA (Human BCMA, TPP208 [4]) [%]	pH 6 SPR % similarity-CD3 (Human CD3ED, TPP401 [5]) [%]	pH 8 SPR % similarity-BCMA (Human BCMA, TPP208 [6]) [%]	pH 8 SPR % similarity-CD3 (Human CD3ED, TPP401 [7]) [%]	EC50 PB killing (nM), AAV-1 (n = 1) [8] [nM]	EC50 for BM plasmablast killing (nM), bone marrow mononuclear cells, 24 h [9] [nM]	pH 6-TBP SPR % similarity-BCMA (Human BCMA, TPP208 [10]) [%]	pH 6-TBP SPR % similarity-CD3 (Human CD3ED, TPP401 [11]) [%]	other results
B1	1.1	5.72	100	99.9	100	100	99.9	71.5	0.236	0.266	82.5	75.3	EC50 PB killing (nM), healthy volunteers (n = 2) [8]: 0.257 nM
B2	0.06	0.12	100	100	99.4	100	95.7	70.1	0.003	0.00281	54	72.3	EC50 PB killing (nM), healthy volunteers (n = 3) [8]: 0.007 nM
B3	0.14	2.79							0.01	0.0201			EC50 PB killing (nM), healthy volunteers (n = 6) [8]: 0.029 nM; EC50 for plasmablast killing in AAV, PBMC, 24 h [12]: 0.007 nM; EC50 for plasmablast killing in RA, PBMC, 24 h [12]: 0.001 nM; EC50 for plasmablast killing in SLE (n=5), PBMC, 24 h [12]: 0.01 nM; EC50 for plasmablast killing in healthy volunteers (n=12), PBMC, 24 h [12]: 0.005 nM; Plasmablast depletion EC50 (nM), PBMC from healthy volunteers, soluble BCMA 0 ng/ml [13]: 0.005 nM; Plasmablast depletion EC50 (nM), PBMC from healthy volunteers, soluble BCMA 16.8 ng/ml [13]: 0.025 nM; Plasmablast depletion EC50 (nM), PBMC from healthy volunteers, soluble BCMA 33.6 ng/ml [13]: 0.13 nM; Plasmablast depletion EC50 (nM), PBMC from healthy volunteers, soluble BCMA 67.6 ng/ml [13]: 0.32 nM
